Measurements as given in PMC2171589 (The Journal of Cell Biology, 2005).

B1: GST-Wbp1 (cytoplasmic domain of Wbp1 fused to GST) (domain or fragment)
chain: KKLETFKKTN
B2: ARF1, full-length myristoylated form (ADP ribosylation factor 1) (natural protein)
chain: not shown
modifications: myristoylated

Assays:
Test in all cases: pull-down
[1] = molecular target: ARFGAP1, wild-type, 6x-his tagged, soluble (UniProt Q62848 1-415)
[2] = molecular target: His-tagged, full-length, R50K point mutant GAP (UniProt Q62848 1-415, R50K)
[3] = molecular target: ARFGAP1 as a GST fusion protein (GST-ARFGAP1) (UniProt Q62848 1-415)
[4] = molecular target: point mutant GAP (R50K) as GST fusion protein (GST-R50K GAP) (UniProt Q62848 1-415, R50K)
Sequence of point mutant GAP (R50K) as GST fusion protein (GST-R50K GAP) (Q62848 whole entry R50K, the tested form may be a part): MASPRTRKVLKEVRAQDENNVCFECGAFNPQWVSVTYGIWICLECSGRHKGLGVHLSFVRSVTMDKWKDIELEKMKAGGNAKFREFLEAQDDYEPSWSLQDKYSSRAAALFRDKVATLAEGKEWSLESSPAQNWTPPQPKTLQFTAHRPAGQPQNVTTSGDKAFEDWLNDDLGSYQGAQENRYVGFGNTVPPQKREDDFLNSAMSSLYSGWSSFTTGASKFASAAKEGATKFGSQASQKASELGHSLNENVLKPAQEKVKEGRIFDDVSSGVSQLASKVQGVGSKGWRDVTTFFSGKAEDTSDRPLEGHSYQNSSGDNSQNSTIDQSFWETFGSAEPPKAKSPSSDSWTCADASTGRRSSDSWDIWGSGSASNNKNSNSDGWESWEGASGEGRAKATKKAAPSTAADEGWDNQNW

Sequence of ARFGAP1, wild-type, 6x-his tagged, soluble (Q62848 whole entry): as the sequence (Q62848 whole entry R50K, the tested form may be a part) above, with K50R counted along it
Sequence of ARFGAP1 as a GST fusion protein (GST-ARFGAP1) (Q62848 whole entry, the tested form may be a part): as the sequence (Q62848 whole entry R50K, the tested form may be a part) above, with K50R counted along it
Sequence of His-tagged, full-length, R50K point mutant GAP (Q62848 whole entry R50K, the tested form may be a part): as the sequence (Q62848 whole entry R50K, the tested form may be a part) above

Row | Binder | binding result [1] | binding result [2] | binding result [3] | binding result [4]
1 | B1 | binds | binds |  | 
2 | B2 |  |  | binds | binds
